Target: HSP27 ACD domain (α-crystallin domain), monomeric (human)
Assay: ITC

HSP27 ACD domain (α-crystallin domain), monomeric (human), sequence (P04792 76-184): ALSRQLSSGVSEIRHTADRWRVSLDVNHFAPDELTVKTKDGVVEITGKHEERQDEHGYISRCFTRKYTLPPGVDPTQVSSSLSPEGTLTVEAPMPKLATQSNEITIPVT

B1: HSP27 IXI peptide 178-…-186 (F185H), without biotin (peptide)
peptide: EITIPVTHE
With B1 the Kd was 14.3 µM.
